In paper PMC9892613:
Substitutions are numbered along the chain they refer to. “And” between values parts separate entries of the source, which are not always exact repeats. Equal values may be shown once.

B1: nanobody 59H10 (VHH)
VHH: DVQLQESGGGLVQAGGSLRLSCAASGSISRFNAMGWWRQAPGKEREFVARIVKGFDPVLADSVKGRFTISIDSAENTLALQMNRLKPEDTAVYYCFAALDTAYWGQGTQVTVSS
B2: nanobody 37E7 (VHH)
VHH: B1 VHH with F55G, D56Y, P57A

Columns and labels:
[1] = molecular target: HIV-1 capsid protein p24 (His-p24) (HIV-1) (UniProt P12493); assay: BLI; in the same nanobody storage buffer (Fig. S5)
[2] = molecular target: HIV-1 capsid protein p24 (His-p24) (HIV-1) (UniProt P12493); assay: ITC; nanobody (200 uM, syringe) titrated into His-p24 (12.5 uM, cell); 10 mM phosphate pH 8, 25 mM NaCl; 25.1 C; at least triplicate

Binder | Kd [1] [nM] | dH [2]
B1 | 0.77 | -3.9 kcal/mol
B2 | 9.6 | -4.1 kcal/mol and -4.09 kcal/mol
